For eight proteins, Km, kcat and kcat/Km results are on record in publication PMC9741242, “Insights into the Structure of the Highly Glycosylated Ffase from Rhodotorula dairenensis Enhance Its Biotechnological Potential” (International Journal of Molecular Sciences, 2022).

First the molecules themselves.
B1: RdINV (Rhodotorula dairenensis; A213W/Q216L) (protein)
chain: APAASSLAGPVTTGVFSAVSAIPSFATNLSGQVASATSTVLSGSTASGSSATAAPSASASGASSMQSMASSLSGSAFSPSSMMPIASGNMTMPNMTSSASASSAASTATGVAGGAGSNSSSSCAPTSLPASATELPTTVPTGTVITGDYTGSYRPQVHYSPPKGFMNDPNGCHRDRNGTYHLYYQYNPLEYVWGNLHWGHATSDDLYHWTNQPIAIFPPNSTSQVFSGSAVLDPNNTSGFFPNTTDGVVAVYTLNTPTLQVQEVAYSTDGGYNFTPYENNPVLSVGSNQFRDPKVFWYEDHWVMAVAAANDFTIEIYTSPNLTSWTFASNFTHHGLLGLAYECPNLVQVPFQDDPSKSAWLMYISINPGAPLGGSVGQYFPGDFNGTHFVAYDSAARIADFAKDNYASQWFADTENGESISIAWASNWQYTQQVPTSAQAFRSAMSLPRRNYLTNITRLGWDLVSLPYDLSPVVGPSLLSSSEANSTADVDFTNVTSNAVWFSLNVTLPDAAIQNASLISADASINITFLPSTKCSSSSGSGSDSPAATLTYFYAGLTNGALALTRPAASSSWGAENPFFTDKFSYTLVDPLTSLVGVFDRSMLEVFVNEGAHSATMLVFPDSPVGSMKVATGGLPEGTQVNLQVNGLESTWQSS
notes: full-length RdINV, 675 residues, S. cerevisiae MFalpha secretion signal in pIB4, secreted by Komagataella phaffii; highly N- and O-glycosylated, ~170 kDa; homodimer
B2: RdINV (Rhodotorula dairenensis; A213W) (protein)
chain: APAASSLAGPVTTGVFSAVSAIPSFATNLSGQVASATSTVLSGSTASGSSATAAPSASASGASSMQSMASSLSGSAFSPSSMMPIASGNMTMPNMTSSASASSAASTATGVAGGAGSNSSSSCAPTSLPASATELPTTVPTGTVITGDYTGSYRPQVHYSPPKGFMNDPNGCHRDRNGTYHLYYQYNPLEYVWGNQHWGHATSDDLYHWTNQPIAIFPPNSTSQVFSGSAVLDPNNTSGFFPNTTDGVVAVYTLNTPTLQVQEVAYSTDGGYNFTPYENNPVLSVGSNQFRDPKVFWYEDHWVMAVAAANDFTIEIYTSPNLTSWTFASNFTHHGLLGLAYECPNLVQVPFQDDPSKSAWLMYISINPGAPLGGSVGQYFPGDFNGTHFVAYDSAARIADFAKDNYASQWFADTENGESISIAWASNWQYTQQVPTSAQAFRSAMSLPRRNYLTNITRLGWDLVSLPYDLSPVVGPSLLSSSEANSTADVDFTNVTSNAVWFSLNVTLPDAAIQNASLISADASINITFLPSTKCSSSSGSGSDSPAATLTYFYAGLTNGALALTRPAASSSWGAENPFFTDKFSYTLVDPLTSLVGVFDRSMLEVFVNEGAHSATMLVFPDSPVGSMKVATGGLPEGTQVNLQVNGLESTWQSS
notes: as for B1
B3: RdINV (Rhodotorula dairenensis; A360Q) (protein)
chain: APAASSLAGPVTTGVFSAVSAIPSFATNLSGQVASATSTVLSGSTASGSSATAAPSASASGASSMQSMASSLSGSAFSPSSMMPIASGNMTMPNMTSSASASSAASTATGVAGGAGSNSSSSCAPTSLPASATELPTTVPTGTVITGDYTGSYRPQVHYSPPKGFMNDPNGCHRDRNGTYHLYYQYNPLEYVAGNQHWGHATSDDLYHWTNQPIAIFPPNSTSQVFSGSAVLDPNNTSGFFPNTTDGVVAVYTLNTPTLQVQEVAYSTDGGYNFTPYENNPVLSVGSNQFRDPKVFWYEDHWVMAVAAANDFTIEIYTSPNLTSWTFASNFTHHGLLGLQYECPNLVQVPFQDDPSKSAWLMYISINPGAPLGGSVGQYFPGDFNGTHFVAYDSAARIADFAKDNYASQWFADTENGESISIAWASNWQYTQQVPTSAQAFRSAMSLPRRNYLTNITRLGWDLVSLPYDLSPVVGPSLLSSSEANSTADVDFTNVTSNAVWFSLNVTLPDAAIQNASLISADASINITFLPSTKCSSSSGSGSDSPAATLTYFYAGLTNGALALTRPAASSSWGAENPFFTDKFSYTLVDPLTSLVGVFDRSMLEVFVNEGAHSATMLVFPDSPVGSMKVATGGLPEGTQVNLQVNGLESTWQSS
notes: as for B1
B4: RdINV (Rhodotorula dairenensis; Q216T) (protein)
chain: APAASSLAGPVTTGVFSAVSAIPSFATNLSGQVASATSTVLSGSTASGSSATAAPSASASGASSMQSMASSLSGSAFSPSSMMPIASGNMTMPNMTSSASASSAASTATGVAGGAGSNSSSSCAPTSLPASATELPTTVPTGTVITGDYTGSYRPQVHYSPPKGFMNDPNGCHRDRNGTYHLYYQYNPLEYVAGNTHWGHATSDDLYHWTNQPIAIFPPNSTSQVFSGSAVLDPNNTSGFFPNTTDGVVAVYTLNTPTLQVQEVAYSTDGGYNFTPYENNPVLSVGSNQFRDPKVFWYEDHWVMAVAAANDFTIEIYTSPNLTSWTFASNFTHHGLLGLAYECPNLVQVPFQDDPSKSAWLMYISINPGAPLGGSVGQYFPGDFNGTHFVAYDSAARIADFAKDNYASQWFADTENGESISIAWASNWQYTQQVPTSAQAFRSAMSLPRRNYLTNITRLGWDLVSLPYDLSPVVGPSLLSSSEANSTADVDFTNVTSNAVWFSLNVTLPDAAIQNASLISADASINITFLPSTKCSSSSGSGSDSPAATLTYFYAGLTNGALALTRPAASSSWGAENPFFTDKFSYTLVDPLTSLVGVFDRSMLEVFVNEGAHSATMLVFPDSPVGSMKVATGGLPEGTQVNLQVNGLESTWQSS
notes: as for B1
B5: RdINV (Rhodotorula dairenensis) (protein)
chain: APAASSLAGPVTTGVFSAVSAIPSFATNLSGQVASATSTVLSGSTASGSSATAAPSASASGASSMQSMASSLSGSAFSPSSMMPIASGNMTMPNMTSSASASSAASTATGVAGGAGSNSSSSCAPTSLPASATELPTTVPTGTVITGDYTGSYRPQVHYSPPKGFMNDPNGCHRDRNGTYHLYYQYNPLEYVAGNQHWGHATSDDLYHWTNQPIAIFPPNSTSQVFSGSAVLDPNNTSGFFPNTTDGVVAVYTLNTPTLQVQEVAYSTDGGYNFTPYENNPVLSVGSNQFRDPKVFWYEDHWVMAVAAANDFTIEIYTSPNLTSWTFASNFTHHGLLGLAYECPNLVQVPFQDDPSKSAWLMYISINPGAPLGGSVGQYFPGDFNGTHFVAYDSAARIADFAKDNYASQWFADTENGESISIAWASNWQYTQQVPTSAQAFRSAMSLPRRNYLTNITRLGWDLVSLPYDLSPVVGPSLLSSSEANSTADVDFTNVTSNAVWFSLNVTLPDAAIQNASLISADASINITFLPSTKCSSSSGSGSDSPAATLTYFYAGLTNGALALTRPAASSSWGAENPFFTDKFSYTLVDPLTSLVGVFDRSMLEVFVNEGAHSATMLVFPDSPVGSMKVATGGLPEGTQVNLQVNGLESTWQSS
notes: as for B1
B6: RdINV (Rhodotorula dairenensis; A360Q/N387T) (protein)
chain: APAASSLAGPVTTGVFSAVSAIPSFATNLSGQVASATSTVLSGSTASGSSATAAPSASASGASSMQSMASSLSGSAFSPSSMMPIASGNMTMPNMTSSASASSAASTATGVAGGAGSNSSSSCAPTSLPASATELPTTVPTGTVITGDYTGSYRPQVHYSPPKGFMNDPNGCHRDRNGTYHLYYQYNPLEYVAGNQHWGHATSDDLYHWTNQPIAIFPPNSTSQVFSGSAVLDPNNTSGFFPNTTDGVVAVYTLNTPTLQVQEVAYSTDGGYNFTPYENNPVLSVGSNQFRDPKVFWYEDHWVMAVAAANDFTIEIYTSPNLTSWTFASNFTHHGLLGLQYECPNLVQVPFQDDPSKSAWLMYISITPGAPLGGSVGQYFPGDFNGTHFVAYDSAARIADFAKDNYASQWFADTENGESISIAWASNWQYTQQVPTSAQAFRSAMSLPRRNYLTNITRLGWDLVSLPYDLSPVVGPSLLSSSEANSTADVDFTNVTSNAVWFSLNVTLPDAAIQNASLISADASINITFLPSTKCSSSSGSGSDSPAATLTYFYAGLTNGALALTRPAASSSWGAENPFFTDKFSYTLVDPLTSLVGVFDRSMLEVFVNEGAHSATMLVFPDSPVGSMKVATGGLPEGTQVNLQVNGLESTWQSS
notes: as for B1
B7: RdINV (Rhodotorula dairenensis; N387T) (protein)
chain: APAASSLAGPVTTGVFSAVSAIPSFATNLSGQVASATSTVLSGSTASGSSATAAPSASASGASSMQSMASSLSGSAFSPSSMMPIASGNMTMPNMTSSASASSAASTATGVAGGAGSNSSSSCAPTSLPASATELPTTVPTGTVITGDYTGSYRPQVHYSPPKGFMNDPNGCHRDRNGTYHLYYQYNPLEYVAGNQHWGHATSDDLYHWTNQPIAIFPPNSTSQVFSGSAVLDPNNTSGFFPNTTDGVVAVYTLNTPTLQVQEVAYSTDGGYNFTPYENNPVLSVGSNQFRDPKVFWYEDHWVMAVAAANDFTIEIYTSPNLTSWTFASNFTHHGLLGLAYECPNLVQVPFQDDPSKSAWLMYISITPGAPLGGSVGQYFPGDFNGTHFVAYDSAARIADFAKDNYASQWFADTENGESISIAWASNWQYTQQVPTSAQAFRSAMSLPRRNYLTNITRLGWDLVSLPYDLSPVVGPSLLSSSEANSTADVDFTNVTSNAVWFSLNVTLPDAAIQNASLISADASINITFLPSTKCSSSSGSGSDSPAATLTYFYAGLTNGALALTRPAASSSWGAENPFFTDKFSYTLVDPLTSLVGVFDRSMLEVFVNEGAHSATMLVFPDSPVGSMKVATGGLPEGTQVNLQVNGLESTWQSS
notes: as for B1
B8: RdINV (Rhodotorula dairenensis; Q216L) (protein)
chain: APAASSLAGPVTTGVFSAVSAIPSFATNLSGQVASATSTVLSGSTASGSSATAAPSASASGASSMQSMASSLSGSAFSPSSMMPIASGNMTMPNMTSSASASSAASTATGVAGGAGSNSSSSCAPTSLPASATELPTTVPTGTVITGDYTGSYRPQVHYSPPKGFMNDPNGCHRDRNGTYHLYYQYNPLEYVAGNLHWGHATSDDLYHWTNQPIAIFPPNSTSQVFSGSAVLDPNNTSGFFPNTTDGVVAVYTLNTPTLQVQEVAYSTDGGYNFTPYENNPVLSVGSNQFRDPKVFWYEDHWVMAVAAANDFTIEIYTSPNLTSWTFASNFTHHGLLGLAYECPNLVQVPFQDDPSKSAWLMYISINPGAPLGGSVGQYFPGDFNGTHFVAYDSAARIADFAKDNYASQWFADTENGESISIAWASNWQYTQQVPTSAQAFRSAMSLPRRNYLTNITRLGWDLVSLPYDLSPVVGPSLLSSSEANSTADVDFTNVTSNAVWFSLNVTLPDAAIQNASLISADASINITFLPSTKCSSSSGSGSDSPAATLTYFYAGLTNGALALTRPAASSSWGAENPFFTDKFSYTLVDPLTSLVGVFDRSMLEVFVNEGAHSATMLVFPDSPVGSMKVATGGLPEGTQVNLQVNGLESTWQSS
notes: as for B1

For orientation: Km means the substrate concentration at which the rate is half of its maximum. For orientation: kcat means the maximal rate divided by the concentration of active sites. The term kcat/Km denotes the turnover number divided by the Michaelis constant.

Substrate in this series: OC[C@H]1O[C@@](CO)(O[C@H]2O[C@H](CO)[C@@H](O)[C@H](O)[C@H]2O)[C@@H](O)[C@@H]1O
In words: DNS reducing sugar assay, Michaelis-Menten fit. Type of series: biochemical, Rhodotorula dairenensis. As to conditions: 50 mM sodium phosphate pH 5.5, 60 °C, sucrose 1-200 mM. An excerpt: DNS reducing sugar assay, Michaelis-Menten fit on RdINV
As for B1, the Km is listed as 88 ± 9 mM, the kcat came out at 10500 ± 329 s⁻¹ and the kcat/Km turned out to be 120000 ± 4000 M⁻¹ s⁻¹.
For the protein B2, the Km came out at 47 ± 3 mM, the kcat was found to be 2720 ± 45 s⁻¹ and the kcat/Km came out at 58000 ± 3000 M⁻¹ s⁻¹.
In the same order, the values of B3 are 15 ± 0.2 mM, 3814 ± 16 s⁻¹ and 251000 ± 21000 M⁻¹ s⁻¹.
The like results for B4 were, in that order, 13 ± 1 mM, 11500 ± 182 s⁻¹ and 864000 ± 39000 M⁻¹ s⁻¹.
Take B5: the Km was 5 ± 0.1 mM, the turnover number (kcat) stood at 4751 ± 25 s⁻¹ and the kcat/Km is 1.011e+06 ± 10000 M⁻¹ s⁻¹.
As to B6, the Km is on record as 14 ± 0.6 mM, the kcat was found to be 486 ± 4 s⁻¹ and the kcat/Km is 34000 ± 1000 M⁻¹ s⁻¹.
B7: the Km is 17 ± 0.8 mM, the kcat amounted to 583 ± 5 s⁻¹ and the kcat/Km turned out to be 35000 ± 1000 M⁻¹ s⁻¹.
The like results for B8 were, in that order, 24 ± 1 mM, 2324 ± 13 s⁻¹ and 98000 ± 3000 M⁻¹ s⁻¹.
